From US10906989 (dated 2021)

Molecular target: T1, staphylocoagulase SC(1-246), unlabeled (UniProt P17855 27-272)
T1 chain: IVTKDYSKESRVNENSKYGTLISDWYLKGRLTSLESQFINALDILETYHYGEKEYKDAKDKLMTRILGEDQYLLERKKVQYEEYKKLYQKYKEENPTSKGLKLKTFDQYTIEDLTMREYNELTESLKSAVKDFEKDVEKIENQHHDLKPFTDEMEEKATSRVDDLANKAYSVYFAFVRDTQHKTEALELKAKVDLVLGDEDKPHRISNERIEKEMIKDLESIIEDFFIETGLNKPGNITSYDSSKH
Assay: fluorescence competitive titration; competitor

B1: GMA-2105 murine monoclonal antibody (antibody, V domains shown)
VH: EVKLEESGGGLVQPGGSMKLSCAASGFTFSDAWMDWVRQSPEKGLEWVAEIRTKANNHATYYAESVKGRFTISRDDSKSSVYLQMNSLRAEDTGIYYCTNVYYGNNDVKDYWGQGTSVTVSP
VL: DIVMTQSQKFMSTSVGDRVSVTCKASQNVDIYVAWYQQKPGQSPKALIYSASYRFSGVPDRFTGSGSGTDFTLSISNVQSEDLAEYFCQQYNNYPYTFGGGTKLEIKR
Kd: 710 pM

B2: Chimeric GMA-2105 (antibody, V domains shown)
VH: B1 VH
VL: B1 VL
Kd: 750 pM
